Biological target: T1, The other proteins of the P. furiosus Cmr effector complex (Cmr1, Cmr3, Cmr4, Cmr5, Cmr6, with crRNA)
T1 chain 1: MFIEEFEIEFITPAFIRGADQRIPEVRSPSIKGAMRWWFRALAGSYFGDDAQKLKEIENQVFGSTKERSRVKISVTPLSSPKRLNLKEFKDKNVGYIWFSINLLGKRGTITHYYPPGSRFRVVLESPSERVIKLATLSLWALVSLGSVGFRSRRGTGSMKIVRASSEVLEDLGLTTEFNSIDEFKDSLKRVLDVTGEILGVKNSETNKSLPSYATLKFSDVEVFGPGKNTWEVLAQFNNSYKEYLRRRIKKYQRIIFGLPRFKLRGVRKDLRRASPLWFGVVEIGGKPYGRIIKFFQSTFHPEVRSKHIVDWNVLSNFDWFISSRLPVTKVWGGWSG
T1 chain 2: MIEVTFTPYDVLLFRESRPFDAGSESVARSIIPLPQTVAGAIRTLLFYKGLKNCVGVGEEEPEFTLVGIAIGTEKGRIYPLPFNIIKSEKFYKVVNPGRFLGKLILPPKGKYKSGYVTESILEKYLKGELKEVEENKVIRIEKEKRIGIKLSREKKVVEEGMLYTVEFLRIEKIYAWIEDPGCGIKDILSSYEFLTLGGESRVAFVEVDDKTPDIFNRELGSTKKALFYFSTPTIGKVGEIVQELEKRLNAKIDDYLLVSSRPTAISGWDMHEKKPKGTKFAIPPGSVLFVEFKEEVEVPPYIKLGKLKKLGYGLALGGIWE
T1 chain 3: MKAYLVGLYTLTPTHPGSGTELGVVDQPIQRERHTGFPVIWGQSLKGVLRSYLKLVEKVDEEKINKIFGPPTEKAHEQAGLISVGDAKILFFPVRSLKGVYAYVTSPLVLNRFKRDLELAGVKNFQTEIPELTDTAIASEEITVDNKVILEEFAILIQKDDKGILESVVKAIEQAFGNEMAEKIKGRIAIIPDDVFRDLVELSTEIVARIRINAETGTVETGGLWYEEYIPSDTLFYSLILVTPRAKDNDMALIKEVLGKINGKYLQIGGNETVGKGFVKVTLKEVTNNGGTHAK
T1 chain 4: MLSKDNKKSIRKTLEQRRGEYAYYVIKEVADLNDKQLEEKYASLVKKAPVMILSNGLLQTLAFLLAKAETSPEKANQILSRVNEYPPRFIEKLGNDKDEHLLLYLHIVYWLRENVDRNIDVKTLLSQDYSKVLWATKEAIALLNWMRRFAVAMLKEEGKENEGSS
T1 chain 5: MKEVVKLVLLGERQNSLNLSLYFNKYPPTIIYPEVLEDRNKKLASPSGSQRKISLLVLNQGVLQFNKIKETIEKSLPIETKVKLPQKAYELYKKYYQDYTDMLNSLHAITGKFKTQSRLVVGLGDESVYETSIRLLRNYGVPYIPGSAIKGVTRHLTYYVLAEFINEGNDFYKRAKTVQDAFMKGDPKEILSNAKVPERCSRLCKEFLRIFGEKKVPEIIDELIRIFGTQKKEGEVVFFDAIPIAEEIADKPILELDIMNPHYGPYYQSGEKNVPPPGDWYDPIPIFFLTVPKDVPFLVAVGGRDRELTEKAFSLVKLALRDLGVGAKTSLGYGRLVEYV

B1: Pyrococcus furiosus Cmr2 protein, wild type (PF1129) (protein)
chain: MVNIKEKLFVYLHDPPDKALKIENHEERSKKILSSGNIQYSRTDKVKQADALSSKTQRFIIRTKENKEPVIDFLGRSSGKYFHVGYPVFIHPISTEIKRYETLEKYIDLGRSNRGERFVNEFLERVSKLEGDVLKEVFEDASNKFKGEESKQWAYIWQFYPVKLKEGVKEFAKSELKLKEEEAEKFAEEFVNLPADTRFPDHAIWTHLDLTSALSVKDPTLLRIKIVPVQPFIANSRKQLDLWASSHLLSMLMYKALEVIVDKFGPEHVIYPSLRDQPFFLKFYLGENIGDEILVANLPNKALAIVSGKEAEKIEEEIKKRIRDFLLQLYREAVDWAVENGVVKVDRSEKDSMLKEAYLKIVREYFTVSITWVSLSEKEDIYQVTENAGLSDEDVKKWLKFAEKKENSRVLERIAIYPLLVKILDSLGERKVTEERFEKSEQLKGWKCHVCGENLAIFGDMYDHDNLKSLWLDEEPLCPMCLIKRYYPVWIRSKTGQKIRFESVVDVALLYKNWRKIFDEKYGKDLVSKAREVSEDFVKDNMLVDSDLYYSSTWESGLSKKLKNKKEIDEEKVKEVVDFLNAAYKEIGNPPKYYAILVMDGDDMGKVISGEVLGEISTRIHPNIRDYVEIPEAKYYSTPQVHVAISQALANFSIREVRSVVKDEGLLIYAGGDDVLAILPVDKALEVAYKIRKEFGKSFENGSLLPGWKLSAGILIVHYKHPLYDALEKARDLLNNKAKNVPGKDTLAIGLLKRSGSYYISLVGWELIRVFYNSELRKKLLEEKGGVGKRFIYHVLREVDTWPKVGIDEMLKFEVIRHIRGRNKEETKELREKIYGEIKDLLEHVRGNNEVEKVRGLFTFLKIITDAEVFP
For B1, the “ssDNA nuclease activity (cleavage of 5' radiolabeled ssDNA oligo, denaturing PAGE)” value was “The reconstituted Cmr complex (including Cmr1-6 and crRNA) displays very little ssDNA nuclease activity in comparison with approximately equimolar concentrations of Cmr2 alone”.

Reference: patent US20190161753
